In paper PMC10199020 (Nature Communications, 2023):

Target: T1, NL-IL23R co-expressed with IL12Rβ1 (IL-23 receptor on cells) (UniProt Q5VWK5 24-629; P42701 24-662)
T1 construct: also called NL-IL23R and IL12Rβ1; NL-IL23R with IL12Rβ1; source: HEK293T, transiently transfected, on living cells
Test: FRET or BRET; NanoBRET competition on living transfected HEK293T cells; 300 pM IL23-TMR displaced by unlabelled antagonist (concentration series or a single concentration); 1 h at 37 °C in HBSS with 1 mg/mL BSA
Details: one partner purified

T1 sequence (Q5VWK5 24-629, chain 1 of 2, other chains not shown): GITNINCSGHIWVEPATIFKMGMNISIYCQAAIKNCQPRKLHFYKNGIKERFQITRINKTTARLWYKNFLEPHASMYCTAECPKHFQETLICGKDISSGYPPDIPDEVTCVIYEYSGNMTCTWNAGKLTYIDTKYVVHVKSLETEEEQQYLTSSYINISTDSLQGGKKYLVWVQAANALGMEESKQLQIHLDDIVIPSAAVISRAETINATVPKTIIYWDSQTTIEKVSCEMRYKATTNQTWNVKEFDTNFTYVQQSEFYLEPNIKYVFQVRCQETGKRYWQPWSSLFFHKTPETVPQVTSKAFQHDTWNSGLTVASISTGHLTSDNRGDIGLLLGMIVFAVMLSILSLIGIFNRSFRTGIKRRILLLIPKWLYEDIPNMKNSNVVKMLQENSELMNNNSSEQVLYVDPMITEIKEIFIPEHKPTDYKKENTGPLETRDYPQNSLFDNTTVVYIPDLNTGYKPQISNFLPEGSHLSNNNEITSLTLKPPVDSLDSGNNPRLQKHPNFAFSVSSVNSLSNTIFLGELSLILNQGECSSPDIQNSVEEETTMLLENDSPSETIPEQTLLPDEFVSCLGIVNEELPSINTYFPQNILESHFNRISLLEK

B1: IL12p40 (ligand, UniProt P29460 23-328, looked up)
chain: IWELKKDVYVVELDWYPDAPGEMVVLTCDTPEEDGITWTLDQSSEVLGSGKTLTIQVKEFGDAGQYTCHKGGEVLSHSLLLLHKKEDGIWSTDILKDQKEPKNKTFLRCEAKNYSGRFTCWWLTTISTDLTFSVKSSRGSSDPQGVTCGAATLSAERVRGDNKEYEYSVECQEDSACPAAEESLPIEVMVDAVHKLKYENYTSSFFIRDIIKPDPPKNLQLKPLKNSRQVEVSWEYPDTWSTPHSYFSLTFCVQVQGKSKREKKDRVFTDKTSATVICRKNASISVRAQDRYYSSSWSEWASVPCS
notes: source: bought: Peprotech (CHO produced)
  Ki: 12.4 nM
